Target: T1, transforming growth factor beta 1 (UniProt P01137 279-390)
T1 construct: Transforming growth factor beta 1 (TGFβ1), the mature growth factor cut from its precursor; The source of the TGFβ1 is told only for the cell assays (PeproTech); also called TGFβ1; TGFβ; source: bought: PeproTech (cell assays)
Experiment: SPR; BIAcore 3000; which partner was immobilised and the conditions are not given
Conditions: both partners purified

T1 sequence (P01137 279-390): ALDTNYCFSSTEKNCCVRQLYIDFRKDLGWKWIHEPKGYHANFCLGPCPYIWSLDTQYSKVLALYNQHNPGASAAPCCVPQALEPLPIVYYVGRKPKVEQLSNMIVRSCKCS

Kd: 2.32 µM
B1: Leucine-rich α2-glycoprotein (natural protein)
chain: LKECLILQSAEGSTVSCHGPTEFPSSLPADTVHLSVEFSNLTQLPAAALQGCPGLRELHLSSNRLQALSPELLAPVPRLRALDLTRNALRSLPPGLFSTSANLSTLVLRENQLREVSAQWLQGLDALGHLDLAENQLSSLPSGLLASLGALHTLDLGYNLLESLPEGLLRGPRRLQRLHLEGNRLQRLEDSLLAPQPFLRVLFLNDNQLVGVATGSFQGLQHLDMLDLSNNSLSSTPPGLWAFLGRPTRDMQDGFDISHNPWICDKNLADLCRWLVANRNKMFSQNDTRCAGPEAMKGQRLLDVAELGSL

— PMC4484435, “Leucine-rich α-2-glycoprotein promotes TGFβ1-mediated growth suppression in the Lewis lung carcinoma cell lines” (Oncotarget, 2015)
